In patent publication US20180030546:

Target: RAP1 (RAP1-GTPase) (UniProt P62834)
Sequence (P62834 1-181): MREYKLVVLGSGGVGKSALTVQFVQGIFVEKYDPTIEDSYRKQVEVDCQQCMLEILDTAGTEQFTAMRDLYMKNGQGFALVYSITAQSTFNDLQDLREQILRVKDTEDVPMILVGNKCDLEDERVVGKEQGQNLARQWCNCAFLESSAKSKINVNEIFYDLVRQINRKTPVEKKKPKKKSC

## Rap1GAP (RAP1 GTPase Activating Protein)
  RAP1 activity (active GTP-bound RAP1 pull-down, immunoblot with RAP1 antibody): Enforced Rap1GAP expression in human GICs inhibited RAP1 activity
